Source: the Human Domainome abundance scans (Beltran et al. 2025)
± gives the uncertainty stated by the source.

B1: CD2-associated protein, residues 1 to 59; numbered along this chain, Q9Y5K6 (parent)
chain: MVDYIVEYDYDAVHDDELTIRVGEIIRNVKKLQEEGWLEGELNGRRGMFPDNFVKEIKR

Variants of: B1
Assay: abundance fitness (aPCA) (normalised: wild type 0, dead -1); higher = more abundant; growth selection in yeast, the domain comes from the species named
Settings: Homo sapiens

Abundance fitness: each site, then its substitutions
E35: K 0.027 ± 0.11, V -0.049 ± 0.066, G -0.071 ± 0.061, T -0.177 ± 0.067, P 0.051 ± 0.099, A -0.067 ± 0.058, R -0.016 ± 0.062, N 0.054 ± 0.11, H -0.068 ± 0.14, L -0.205 ± 0.062, Y -0.215 ± 0.15, Q -0.07 ± 0.092, F -0.158 ± 0.15, D -0.032 ± 0.084, W -0.399 ± 0.11, I -0.062 ± 0.095, M -0.189 ± 0.11, S -0.082 ± 0.068
E41: V -0.535 ± 0.22, W -0.31 ± 0.14, Q -0.352 ± 0.18, Y -0.532 ± 0.28, S -0.013 ± 0.11, I -0.191 ± 0.25, R -0.306 ± 0.09, D -0.349 ± 0.27, A -0.388 ± 0.33, N -0.361 ± 0.49, M -0.312 ± 0.2
E39: A -0.146 ± 0.12, Q -0.248 ± 0.2, H -0.202 ± 0.14, D -0.541 ± 0.16, T -0.26 ± 0.1, L -0.427 ± 0.1, V -0.201 ± 0.11, Y -0.164 ± 0.15, I -0.142 ± 0.17, K -0.302 ± 0.32, M -0.256 ± 0.13, N -0.446 ± 0.21, S -0.057 ± 0.087, C 0 ± 0.21, F -0.432 ± 0.19, R -0.486 ± 0.093
D51: Y -0.125 ± 0.088, M -0.136 ± 0.41, P -0.092 ± 0.083, V -0.066 ± 0.091, A 0.04 ± 0.059, S -0.055 ± 0.057, R -0.019 ± 0.064, L -0.017 ± 0.067, N 0.191 ± 0.3, I 0.092 ± 0.11, W -0.425 ± 0.41, E 0.032 ± 0.2, T 0.018 ± 0.071, G -0.047 ± 0.076, C -0.195 ± 0.45, H -0.032 ± 0.099
G44: V -0.843 ± 0.31, S -0.592 ± 0.22, R -0.133 ± 0.32, H -0.549 ± 0.3, L -0.547 ± 0.36
G36: P -0.143 ± 0.17, S -0.352 ± 0.08, L -0.978 ± 0.18, D -0.551 ± 0.1, C -0.403 ± 0.11, T -0.618 ± 0.13, H -0.231 ± 0.1, E -0.659 ± 0.38, M -0.433 ± 0.16, R -0.195 ± 0.1, N -0.174 ± 0.12, V -0.745 ± 0.13, Y -0.614 ± 0.15, I -0.632 ± 0.13, F -0.622 ± 0.15, Q -0.467 ± 0.3
E34: K 0.075 ± 0.15, I 0.074 ± 0.24, C 0.094 ± 0.21, N 0.009 ± 0.16, L 0.004 ± 0.072, R 0.018 ± 0.077, V -0.006 ± 0.091, M 0.05 ± 0.099, T -0.028 ± 0.14, Y -0.089 ± 0.3, G -0.034 ± 0.072, A -0.048 ± 0.13, D -0.148 ± 0.15, W -0.057 ± 0.098, H 0.173 ± 0.18, Q -0.241 ± 0.36, P -0.152 ± 0.19
L32: V 0.074 ± 0.24, Y -0.206 ± 0.18, T -0.302 ± 0.21, N -0.078 ± 0.16, P -0.152 ± 0.13, E -0.088 ± 0.27, H -0.001 ± 0.12, D -0.223 ± 0.14, S -0.011 ± 0.078, M -0.159 ± 0.24, I -0.238 ± 0.15, G -0.013 ± 0.079, F 0.016 ± 0.19, A 0.118 ± 0.092, K 0.01 ± 0.15, C 0.003 ± 0.11
W37: S -0.277 ± 0.12, M -0.219 ± 0.15, R -0.298 ± 0.14, V -0.253 ± 0.093, Y -0.02 ± 0.28, I -0.451 ± 0.18, T -0.359 ± 0.14, Q -0.32 ± 0.12, K -0.469 ± 0.35, L -0.273 ± 0.075, G -0.779 ± 0.25
N43: Y -0.072 ± 0.11, G -0.057 ± 0.15, H 0.145 ± 0.15, F -0.409 ± 0.15, R -0.082 ± 0.089, Q -0.287 ± 0.12, P -0.653 ± 0.2, C -0.383 ± 0.11, E -0.192 ± 0.45, V -0.694 ± 0.18, W -0.562 ± 0.26, K -0.149 ± 0.12, M -0.395 ± 0.15, S -0.221 ± 0.051, T -0.62 ± 0.12, L -0.323 ± 0.06
K31: F -0.728 ± 0.33, P 0.089 ± 0.12, N -0.311 ± 0.5, Q -0.07 ± 0.1, R -0.069 ± 0.092, H 0.036 ± 0.17, I 0.191 ± 0.19, V -0.092 ± 0.093, Y -0.159 ± 0.44, G -0.096 ± 0.083, L -0.214 ± 0.09, T 0.03 ± 0.12, W -0.328 ± 0.12, S -0.13 ± 0.099
R46: K -0.181 ± 0.17, F -0.346 ± 0.2, S -0.402 ± 0.13, W -0.434 ± 0.16, Q -0.301 ± 0.21, E -0.445 ± 0.26, T -0.082 ± 0.13, M -0.066 ± 0.2, C -0.363 ± 0.2, L -0.245 ± 0.12, I -0.243 ± 0.37
